Reference: publication PMC8162069

Test system: O=C[C@H](O)COP(=O)(O)O
Assay: purified protein
Format: biochemical, Homo sapiens
Settings: without HA

| Substance | Km | kcat | kcat/Km |
| --- | --- | --- | --- |
| Hs-GAPDH (Homo sapiens) | 240 ± 20 µM | 21.7 ± 1.67 s⁻¹ | 90000 M⁻¹ s⁻¹ |
| Hs-GAPDH (Homo sapiens; A232S/F233V) | 490 ± 210 µM | 7.67 ± 2 s⁻¹ | 15700 M⁻¹ s⁻¹ |
